Experimental data: US20250250608A1, “METHODS AND COMPOSITIONS FOR ASSAYING BETA-HEXOSAMINIDASE ENZYMATIC ACTIVITY VIA MASS SPECTROMETRY” (GelbChem, LLC, priority 2024, published 2025)

Substrate: CC(=O)NC1C(Oc2ccc(NC(=O)CCN(CCCCNC(=O)c3ccccc3)C(=O)OC(C)(C)C)cc2)OC(COS(=O)(=O)O)C(O)C1O
Test: Enzyme kinetics of HexA with the HexA substrate, endogenous enzyme from healthy adult dried blood spots, LC-MS/MS detection
Assay type: biochemical
Settings: other: endogenous enzyme from healthy adult dried blood spots
Protocol: 3.2 mm punches were taken from dried blood samples. The punches were added into a well of a multiwell plate and in particular, a 1.0 mL deep-well 96-well plate. Following, 30 μL of the duplex assay cocktail described above was added to each well. The plate was sealed with a silicone sealing mat and shaken at 250 rpm for 4 hours at 37° C. in an orbital shaker incubator. After incubation, the enzymatic reaction was quenched by adding 100 μL of methanol: ethyl acetate (1:1) and mixed by pipetting up and down ˜10 times. Analytes were extracted by adding sodium chloride solution (0.5 M, 200 μL) and ethyl acetate (400 μL) to each well and mixed by pipetting up and down ˜10 times. […]
Analytes were detected via a WATERS™ Xevo TQ triple-quadrupole mass spectrometer. […] The following MRM traces were monitored for quantitation: HexA enzymatic reaction product (456.5>356.1), HexA/B enzymatic reaction product (461.5>361.2), and internal standard (465.5>357.1). […]
Enzyme kinetics of HexA and HexA/B were measured in relationship to the HexA substrate and HexA/B substrate, respectively, using endogenous enzymes from healthy adult dried blood spots. […]
The reaction rate for each substrate at different substrate concentrations was measured and the relationship found to be hyperbolic.

B1: HexA (Homo sapiens) (protein)
chain: TLEKNVLVVSVVTPGCNQLPTLESVENYTLTINDDQCLLLSETVWGALRGLETFSQLVWKSAEGTFFINKTEIEDFPRFPHRGLLLDTSRHYLPLSSILDTLDVMAYNKLNVFHWHLVDDPSFPYESFTFPELMRKGSYNPVTHIYTAQDVKEVIEYARLRGIRVLAEFDTPGHTLSWGPGIPGLLTPCYSGSEPSGTFGPVNPSLNNTYEFMSTFFLEVSSVFPDFYLHLGGDEVDFTCWKSNPEIQDFMRKKGFGEDFKQLESFYIQTLLDIVSSYGKGYVVWQEVFDNKVKIQPDTIIQVWREDIPVNYMKELELVTKAGFRALLSAPWYLNRISYGPDWKDFYIVEPLAFEGTPEQKALVIGGEACMWGEYVDNTNLVPRLWPRAGAVAERLWSNKLTSDLTFAYERLSHFRCELLRRGVQAQPLNVGFCEQEFEQT
notes: using endogenous enzymes from healthy adult dried blood spots; from tissue; host or cells: dried blood spots from healthy adults/individuals (3.2 mm punches)
- Km: 4,051 μM
